Reference: paper PMC10307831, “GATA zinc finger protein p66β promotes breast cancer cell migration by acting as a co-activator of Snail”

B1: COL6A2-G-box-WT (dsDNA)
DNA 1: GGCCCCCTCCTCCCATCCGCG
DNA 2: CGCGGATGGGAGGAGGGGGCC
B2: COL6A2-G-box-MT (dsDNA)
DNA 1: GGCCCCCTAATAATATCCGCG
DNA 2: GCGGATATTATTAGGGGGCC

What was measured:
GST-Snail [1] = target: T1, GST-Snail (UniProt O95863 1-264); assay: EMSA; 5 mM Mg2+, poly(dI.dC); EMSA: 10 mM Tris pH 7.5, 50 mM KCl, 1 mM DTT, 5 mM MgCl2, 2.5% glycerol, 0.05% NP-40, 50 ng/ul poly(dI.dC), 600 fmol probe, 12 ug GST protein in 20 ul; gel 6% 0.5x TBE 4 C. Pull-down: NeutrAvidin beads, 8 h 4 C, washed in IP buffer (50 mM Tris pH 7.5, 150 mM NaCl, 1% Triton X-100); settings: protein: recombinant; tags: N-terminal GST (pGEX-4T-1); label: biotin (probe); blunt
Flag-p66β [2] = target: T2, Flag-p66β (UniProt Q8WXI9 1-593); assay: pull-down; p66β alone; relatively high affinity; EMSA: 10 mM Tris pH 7.5, 50 mM KCl, 1 mM DTT, 5 mM MgCl2, 2.5% glycerol, 0.05% NP-40, 50 ng/ul poly(dI.dC), 600 fmol probe, 12 ug GST protein in 20 ul; gel 6% 0.5x TBE 4 C. Pull-down: NeutrAvidin beads, 8 h 4 C, washed in IP buffer (50 mM Tris pH 7.5, 150 mM NaCl, 1% Triton X-100); settings: protein: recombinant; tags: Flag; label: biotin (probe); blunt
Flag-p66β [3] = target: T2, Flag-p66β; assay: competition; unlabeled mutant vs biotinylated WT probe; EMSA: 10 mM Tris pH 7.5, 50 mM KCl, 1 mM DTT, 5 mM MgCl2, 2.5% glycerol, 0.05% NP-40, 50 ng/ul poly(dI.dC), 600 fmol probe, 12 ug GST protein in 20 ul; gel 6% 0.5x TBE 4 C. Pull-down: NeutrAvidin beads, 8 h 4 C, washed in IP buffer (50 mM Tris pH 7.5, 150 mM NaCl, 1% Triton X-100); settings: protein: recombinant; tags: Flag; 3' overhang 1 nt on strand 1 as printed (reverse strand lacks 5' C)
GST-Snail [4] = target: T1, GST-Snail; assay: as above; settings: protein: recombinant; tags: N-terminal GST (pGEX-4T-1); 3' overhang 1 nt on strand 1 as printed (reverse strand lacks 5' C)

T2 sequence (Q8WXI9 whole entry): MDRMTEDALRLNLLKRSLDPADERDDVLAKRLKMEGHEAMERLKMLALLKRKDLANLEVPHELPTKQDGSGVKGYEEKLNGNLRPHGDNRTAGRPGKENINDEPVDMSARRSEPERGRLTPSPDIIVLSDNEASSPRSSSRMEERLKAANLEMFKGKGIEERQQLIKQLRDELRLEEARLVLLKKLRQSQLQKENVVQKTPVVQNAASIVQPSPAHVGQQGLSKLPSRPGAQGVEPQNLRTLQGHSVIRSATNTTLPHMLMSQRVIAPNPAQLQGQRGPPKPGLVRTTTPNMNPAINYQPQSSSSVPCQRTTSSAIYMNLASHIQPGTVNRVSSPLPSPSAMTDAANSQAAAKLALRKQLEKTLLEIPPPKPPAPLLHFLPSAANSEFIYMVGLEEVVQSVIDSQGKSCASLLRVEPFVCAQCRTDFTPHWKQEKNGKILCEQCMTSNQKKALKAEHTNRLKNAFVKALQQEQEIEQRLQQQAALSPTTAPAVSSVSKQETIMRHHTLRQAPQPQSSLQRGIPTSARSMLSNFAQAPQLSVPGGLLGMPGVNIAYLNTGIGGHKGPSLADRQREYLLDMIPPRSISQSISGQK
T1 sequence (O95863 whole entry): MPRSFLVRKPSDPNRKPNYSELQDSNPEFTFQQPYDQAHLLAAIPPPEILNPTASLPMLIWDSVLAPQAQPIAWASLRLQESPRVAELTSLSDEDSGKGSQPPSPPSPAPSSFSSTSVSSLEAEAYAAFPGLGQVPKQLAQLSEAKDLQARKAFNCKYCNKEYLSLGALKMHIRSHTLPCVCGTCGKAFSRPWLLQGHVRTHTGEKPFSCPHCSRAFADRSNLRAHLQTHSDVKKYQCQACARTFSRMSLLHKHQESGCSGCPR

Row | Binder | binding result (GST-Snail [1]) | binding result (Flag-p66β [2]) | binding result (Flag-p66β [3]) | binding result (GST-Snail [4])
1 | B1 | binds | binds |  | 
2 | B2 |  |  | no binding | no binding
